Results as given in publication PMC3575409, “Identification of a Novel Protein-Protein Interaction Motif Mediating Interaction of GPCR-Associated Sorting Proteins with G Protein-Coupled Receptors” (PLoS ONE, 2013).
Several values for one entry are separate records, joined by “and”; a condition that tells them apart may be missing. Equal values may be shown once.

System: full-length CNR2 (cannabinoid receptor type 2)
Experiment: SPR saturation binding, CNR2
Set-up: species or system human
Protocol: The human ADRB2 and CNR2 receptors were produced using the P. pastoris expression system as previously described, [16]. After methanol-induced receptor expression, cells were washed with PBS pH 7.0 and resuspended in ice-cold buffer A (50 mM Tris-HCl pH 7.4, 500 mM NaCl, 10% glycerol, 5 mM EDTA, 1 mM PMSF, 2 mM DDT). Cells were then lysed with two cycles of 20 s shaking and 20 s cooling on ice using 0.5 mm glass beads in a FastPrep 24 device. Unbroken cells and cell debris were removed by centrifugation (3000 g, 5 min, 4°C) and the membrane fraction from the supernatant was pelleted by ultracentrifugation (100,000 g, 45 min, 4°C). […] Finally membranes were resuspended in buffer B and quantified with the bicinchoninic acid (BCA) method (Pierce).
Approximately 150 mg membrane proteins were extracted by 5 min incubation at room temperature in buffer C (50 mM Tris-HCl pH 7.4, 500 mM NaCl, 10% glycerol, 1 mM PMSF, 2 mM DTT, 50 mM imidazole, 1% (w/v) DDM, 0.1% (w/v) CHS). […] Imidazole was removed from the eluted fraction using a HiTrap 5 ml desalting column (GE Healthcare), purified proteins were quantified using the BCA assay (Pierce) and receptor integrity was analyzed by SDS-PAGE. […]

B1: central domain of GASP-1: central portion of GASP-1 (AA 380 to 1073) that contains 19 GASP motif (protein)
chain: MTKEEAKTKARARAKQEARSEEEALIGTWFWATDESSMADEASIESSLQVEDESIIGSWFWTEEEASMGTGASSKSRPRTDGERIGDSLFGAREKTSMKTGAEATSESILAADDEQVIIGSWFWAGEEVNQEAEEETIFGSWFWVIDAASVESGVGVSCESRTRSEEEEVIGPWFWSGEQVDIEAGIGEEARPGAEEETIFGSWFWAENQTYMDCRAETSCDTMQGAEEEEPIIGSWFWTRVEACVEGDVNSKSSLEDKEEAMIPCFGAKEEVSMKHGTGVRCRFMAGAEETNNKSCFWAEKEPCMYPAGGGSWKSRPEEEEDIVNSWFWSRKYTKPEAIIGSWLWATEESNIDGTGEKAKLLTEEETIINSWFWKEDEAISEATDREESRPEAEEGDIIGSWFWAGEEDRLEPAAETREEDRLAAEKEGIVGSWFGAREETIRREAGSCSKSSPKAEEEEVIIGSWFWEEEASPEAVAGVGFESKPGTEEEEITVGSWFWPEEEASIQAGSQAVEEMESETEEETIFGSWFWDGKEVSEEAGPCCVSKPEDDEEMIVESWFWSRDKAIKETGTVATCESKPENEEGAIVGSWFEAEDEVDNRTDNGSNCGSRTLADEDEAIVGSWFWAGDEAHFESNPSPVFRAICRSTCSVEQEPDPSRRPQSWEEVTVQFKPGPWGRVGFPSISPFRFPKE
modifications: left off: GST, N-terminal, kept
notes: central portion of GASP-1 (AA 380 to 1073) that contains 19 GASP motif
dissociation rate constant k d (25°C, 50 mM Tris-HCl pH 7.4, 150 mM NaCl, 0.1% DDM, 0.01% CHS, captured GST-tagged central domain (AA 380–1073)): 6.5±0.1×10^−4 s^−1 and < 10^−3 s^−1 | kinetics of the interaction (full-length CNR2): very stable and had a slow association rate
